According to the Human Domainome abundance scans (Beltran et al. 2025):
± gives the uncertainty stated by the source.

B1: Unconventional myosin-Ie, residues 1051 to 1108; numbered along this chain, Q12965 (parent)
chain: PQVPQCKALYAYDAQDTDELSFNANDIIDIIKEDPSGWWTGRLRGKQGLFPNNYVTKI

Variants of: B1
Assay: abundance fitness (aPCA) (normalised: wild type 0, dead -1); higher = more abundant; growth selection in yeast, the domain comes from the species named
Details: Homo sapiens

Q: For N25P, which abundance fitness is on record?
A: -0.878 ± 0.12

Q: For N25W, which abundance fitness is on record?
A: -0.224 ± 0.056

Q: Which abundance fitness does the source give for N25G here?
A: -0.046 ± 0.041

Q: For L43A, which abundance fitness is on record?
A: -0.123 ± 0.04

Q: Which abundance fitness does the source give for L43T here?
A: -0.113 ± 0.061

Q: With N23H as the variant, how does the abundance fitness read?
A: -0.048 ± 0.032

Q: Which abundance fitness does the source give for S36L here?
A: -0.341 ± 0.05

Q: With S36P as the variant, how does the abundance fitness read?
A: -0.883 ± 0.18

Q: For S36N, which abundance fitness is on record?
A: -0.381 ± 0.12

Q: Which abundance fitness does the source give for Q47R here?
A: -0.099 ± 0.055

Q: With D13C as the variant, how does the abundance fitness read?
A: -0.134 ± 0.06

Q: With D13V as the variant, how does the abundance fitness read?
A: -0.161 ± 0.056

Q: With A14E as the variant, how does the abundance fitness read?
A: -0.695 ± 0.15

Q: Which abundance fitness does the source give for A14S here?
A: -0.188 ± 0.061

Q: Which abundance fitness does the source give for Q5F here?
A: -0.158 ± 0.084

Q: Which abundance fitness does the source give for Q5S here?
A: -0.065 ± 0.044

Q: Which abundance fitness does the source give for K57A here?
A: -0.337 ± 0.05

Q: With P1G as the variant, how does the abundance fitness read?
A: -0.198 ± 0.065

Q: Which abundance fitness does the source give for A8E here?
A: -0.674 ± 0.21

Q: Which abundance fitness does the source give for A8M here?
A: -0.817 ± 0.32

Q: For A8R, which abundance fitness is on record?
A: -0.887 ± 0.15

Q: With A8C as the variant, how does the abundance fitness read?
A: -0.196 ± 0.13

Q: For Q15C, which abundance fitness is on record?
A: -0.239 ± 0.11

Q: With D18G as the variant, how does the abundance fitness read?
A: -0.056 ± 0.038

Q: Which abundance fitness does the source give for D18A here?
A: -0.162 ± 0.056

Q: For T56K, which abundance fitness is on record?
A: -0.165 ± 0.088

Q: For G37C, which abundance fitness is on record?
A: -0.584 ± 0.059

Q: Which abundance fitness does the source give for G45L here?
A: -0.416 ± 0.038

Q: With G45M as the variant, how does the abundance fitness read?
A: -0.161 ± 0.082

Q: For G45T, which abundance fitness is on record?
A: -0.353 ± 0.088

Q: With C6H as the variant, how does the abundance fitness read?
A: -0.839 ± 0.17

Q: Which abundance fitness does the source give for C6S here?
A: -0.448 ± 0.085

Q: For N53G, which abundance fitness is on record?
A: -0.027 ± 0.043

Q: Which abundance fitness does the source give for D26V here?
A: -0.855 ± 0.12

Q: With G41R as the variant, how does the abundance fitness read?
A: -0.906 ± 0.1

Q: Which abundance fitness does the source give for P51H here?
A: -0.264 ± 0.15

Q: Which abundance fitness does the source give for P51S here?
A: -0.287 ± 0.075

Q: Which abundance fitness does the source give for K32I here?
A: 0.028 ± 0.052

Q: Which abundance fitness does the source give for D34R here?
A: -0.173 ± 0.053

Q: Which abundance fitness does the source give for L20S here?
A: -0.879 ± 0.14

Q: For A11E, which abundance fitness is on record?
A: -0.059 ± 0.059

Q: Which abundance fitness does the source give for A11C here?
A: -0.193 ± 0.1

Q: With A11T as the variant, how does the abundance fitness read?
A: -0.218 ± 0.076

Q: For I31A, which abundance fitness is on record?
A: -0.346 ± 0.035

Q: For I31K, which abundance fitness is on record?
A: -0.478 ± 0.044

Q: Which abundance fitness does the source give for I30S here?
A: -0.992 ± 0.13

Q: With I27V as the variant, how does the abundance fitness read?
A: -0.085 ± 0.049

Q: For Q2A, which abundance fitness is on record?
A: -0.091 ± 0.036

Q: Which abundance fitness does the source give for A24E here?
A: -0.052 ± 0.054

Q: For S21V, which abundance fitness is on record?
A: -0.891 ± 0.1

Q: Which abundance fitness does the source give for Y10F here?
A: -0.151 ± 0.069

Q: With Y10D as the variant, how does the abundance fitness read?
A: -0.247 ± 0.068

Q: For Y12S, which abundance fitness is on record?
A: -0.909 ± 0.087

Q: Which abundance fitness does the source give for Y12H here?
A: -0.274 ± 0.12

Q: Which abundance fitness does the source give for R42E here?
A: -0.049 ± 0.049

Q: With P35N as the variant, how does the abundance fitness read?
A: -0.115 ± 0.058

Q: For P35Y, which abundance fitness is on record?
A: -0.266 ± 0.1

Q: For P35M, which abundance fitness is on record?
A: -0.075 ± 0.072

Q: With K7C as the variant, how does the abundance fitness read?
A: -0.028 ± 0.072

Q: Which abundance fitness does the source give for W39A here?
A: -0.374 ± 0.071

Q: For W39C, which abundance fitness is on record?
A: -0.316 ± 0.076

Q: For F22W, which abundance fitness is on record?
A: -0.996 ± 0.14

Q: For F22C, which abundance fitness is on record?
A: -0.895 ± 0.13

Q: For V55W, which abundance fitness is on record?
A: -0.645 ± 0.066

Q: With R44E as the variant, how does the abundance fitness read?
A: -0.319 ± 0.097

Q: With L9D as the variant, how does the abundance fitness read?
A: -0.451 ± 0.078

Q: For L9A, which abundance fitness is on record?
A: -0.315 ± 0.052

Q: With L9W as the variant, how does the abundance fitness read?
A: -0.588 ± 0.07

Q: For E33D, which abundance fitness is on record?
A: -0.271 ± 0.05

Q: With E33H as the variant, how does the abundance fitness read?
A: -0.758 ± 0.45

Q: Which abundance fitness does the source give for E33I here?
A: -0.185 ± 0.054

Q: For L49Q, which abundance fitness is on record?
A: -0.151 ± 0.075

Q: Which abundance fitness does the source give for L49T here?
A: -0.288 ± 0.078
